Results on two molecules are retold here after publication PMC7005279, “Cryo-EM study of an archaeal 30S initiation complex gives insights into evolution of translation initiation” (Communications Biology, 2020).

The target of assay [1] is ribosomal protein uS11 of the Pyrococcus abyssi 30S subunit (P. abyssi, UniProt P62010 1-137). Briefly: cryo-EM structure; IC2 complex (Pa-30S:mRNA:aIF1A:aIF2:GDPNP:Met-tRNAi) purified on TALON by N-terminally tagged aIF2β and aIF2α; overall 3.2 Å, classes IC2A 4.2 Å and IC2B 3.3 Å; aIF1A and aIF2 placed by rigid body fitting. To be noted: both partners purified.
In assay [2] the target is T1, ribosomal protein uS9 of the Pyrococcus abyssi 30S subunit (P. abyssi, UniProt Q9V195 1-135).
T1 construct: 30S ribosomal protein uS9 (S9), Pyrococcus abyssi; its C-terminal residue is printed as R135; Subunit of the native 30S; source: endogenous, in 30S subunits purified from P. abyssi
T1 sequence (Q9V195 whole entry): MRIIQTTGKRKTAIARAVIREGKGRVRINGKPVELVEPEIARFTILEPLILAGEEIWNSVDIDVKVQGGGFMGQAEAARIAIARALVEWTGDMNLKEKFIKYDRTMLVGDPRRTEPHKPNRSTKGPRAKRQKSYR
The description is as above. To be noted: both partners purified.

B1: ribosomal protein uS7 of the Pyrococcus abyssi 30S subunit (natural protein)
chain: not shown
notes: Subunit of the native 30S; source: endogenous, in 30S subunits purified from P. abyssi
Take B1: the binding result in assay [1] is “binds”.

B2: ribosomal protein uS19 of the Pyrococcus abyssi 30S subunit (natural protein)
chain: not shown
notes: 30S ribosomal protein uS19 (S19), Pyrococcus abyssi; Subunit of the native 30S; source: endogenous, in 30S subunits purified from P. abyssi
Turning to B2, the binding result in assay [2] is given as “binds”.
